Measured values: US20260224618A1 (ORICELL THERAPEUTICS, published 2026)
Where a chain is given by its changes, count along the chain named. Each block holds one binder with its values, some of them ahead of it.

How the values were obtained:
Human MSLN-His antigen [1] = molecular target: T1, Human MSLN-His antigen (human, UniProt Q13421 296-580, limits assumed); assay: ELISA, plate coated with 2 ug/ml MSLN-His, VHH-Fc diluted 2.5-fold from 200 nM, anti-human IgG Fc HRP, OD450
T1 construct: also called MSLN-his protein; human MSLN protein; not shown: His tag
T1 sequence (Q13421 other isoform, or with tags, fused parts or gaps limits assumed): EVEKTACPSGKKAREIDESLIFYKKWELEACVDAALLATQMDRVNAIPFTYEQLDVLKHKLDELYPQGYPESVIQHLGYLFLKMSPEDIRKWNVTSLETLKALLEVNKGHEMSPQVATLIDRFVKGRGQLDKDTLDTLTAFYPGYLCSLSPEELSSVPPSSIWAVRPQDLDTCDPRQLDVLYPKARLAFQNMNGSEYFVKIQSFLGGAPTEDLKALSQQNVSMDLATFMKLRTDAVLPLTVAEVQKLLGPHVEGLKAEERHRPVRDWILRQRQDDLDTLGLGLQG
Description: (§1) A high-absorption 384-well plate was coated with 2 μg/ml of MSLN-His […], and left standing at 4° C. overnight. The plate was washed three times with 1×PBST, and blocked with 5% of skimmed milk at room temperature for 2 h. During the blocking, the antibody MSLN-VHH was diluted 2.5-fold starting from a concentration of 200 nM for a total of 11 gradients. At the end of blocking, the plate was washed three times with 1×PT, into which were added corresponding diluted primary antibodies at 30 μl/well and incubated with shaking at room temperature for 1 h. The plate was washed three times with 1×PBST, into which were then added secondary antibodies Anti-human IgG Fc Antibody HRP (abcam, Item No. ab99759) and incubated at room temperature for 30-60 min. The plate was washed seven times with 1×PBST, into which was then added a TMB developer, and 2M phosphoric acid was added 3-5 min later to stop the reaction. The absorbance was read at a wavelength of 450 nm.

Human MSLN-His antigen [2] = molecular target: T1, Human MSLN-His antigen; assay: BLI (ForteBio), AHC probe, nanobody at 100 nM, human MSLN-His 2-fold diluted from 100 nM
Description: MSLN nanobodies with flow cytometric binding activity were diluted to 100 nM and added into a 384-well plate. Human MSLN-His antigens were 2-fold diluted to 100 nM for a total of 7 gradients, and added into a 384-well plate. An AHC probe (Sartorius, Item No. 18-5060) was used, with the binding time set to 180 sec, the dissociation time to 360 sec, the baseline to 60 sec, and the regeneration cycle to three times, each for 5 sec. After then, the binding-dissociation curve was fitted using software to calculate the affinity of the antibodies.

Human MSLN-His antigen [3] = molecular target: T1, Human MSLN-His antigen; assay: ELISA, plate coated with 2 ug/ml MSLN-His, antibody diluted 2.5-fold from 200 nM, anti-human IgG Fc HRP, OD450
Description: as §1

- EC50 (read off the curve) (Human MSLN-His antigen [1]): ~0.8 nM
B4: MSLN51 VHH-Fc fusion protein (Fc fusion)
chain: QVQLQESGGGLVQTGGSLRLSCAASGSIFSINAMGWYRQPPGKQRELVAATSWGGRTNYADSVEGRFTISRDNAKNTVYLQMNSLKPEDTAVYYCKLWDGSSWDIYWGQGTQVTVSS
notes: Tested as bivalent VHH-Fc expressed in EXPI293; also called MSLN-VHH; MSLN nanobody 51; not shown: Fc of the VHH-Fc fusion

- EC50 (read off the curve) (Human MSLN-His antigen [1]): ~0.8 nM
- Kd (Human MSLN-His antigen [2]): 1.41 nM
B9: MSLN53 VHH-Fc fusion protein (Fc fusion)
chain: QVQLQESGGGLVQPGGSLTLSCEASGHTDSYYPKAWFRQAPGKEREFVASIGWGGRMTAYADSVKGRFTVSRTYAKNTVYLQMNSLKPEDTAVYYCAAGIGWAPTADSGEYDYWGQGTQVTVSS
notes: Tested as bivalent VHH-Fc expressed in EXPI293; also called MLSN-53; MSLN-VHH; not shown: Fc of the VHH-Fc fusion

- EC50 (read off the curve) (Human MSLN-His antigen [1]): ~1 nM
- Kd (Human MSLN-His antigen [2]): 2.58 nM
B10: MSLN52 VHH-Fc fusion protein (Fc fusion)
chain: B9 chain with P14A, T19S, E23A
notes: Tested as bivalent VHH-Fc expressed in EXPI293; also called MSLN-VHH; MSLN nanobody 52; not shown: Fc of the VHH-Fc fusion

- EC50 (read off the curve) (Human MSLN-His antigen [1]): ~7 nM
B13: MSLN48 VHH-Fc fusion protein (Fc fusion)
chain: QVQLQESGGGLVQPGGSLRLSCAASESIFSNYSASWYRQAPGKQRELVATIARTGSAFHLGSVKGRFTISRDNAKRTVYLQMNSLLPEDTAVYYCNVWDSWGQGTQVTVSS
notes: Tested as bivalent VHH-Fc expressed in EXPI293; also called MSLN-VHH; MSLN nanobody 48; not shown: Fc of the VHH-Fc fusion

Second part, the binder before the results:

B1: MSLN45 VHH-Fc fusion protein (Fc fusion)
chain: B4 chain with T14P
notes: Tested as bivalent VHH-Fc expressed in EXPI293 and detected with anti-human IgG Fc; also called MSLN-VHH; MSLN nanobody 45; not shown: Fc of the VHH-Fc fusion
- EC50 (read off the curve) (Human MSLN-His antigen [1]): ~0.7 nM

B2: MSLN47 VHH-Fc fusion protein (Fc fusion)
chain: B4 chain with T14A
notes: Tested as bivalent VHH-Fc expressed in EXPI293; also called MSLN-VHH; MSLN nanobody 47; not shown: Fc of the VHH-Fc fusion
- EC50 (read off the curve) (Human MSLN-His antigen [1]): ~0.8 nM

B3: MSLN57 VHH-Fc fusion protein (Fc fusion)
chain: B4 chain with L11M, T14P
notes: Tested as bivalent VHH-Fc expressed in EXPI293; also called MSLN-VHH; MSLN nanobody 57; not shown: Fc of the VHH-Fc fusion
- EC50 (read off the curve) (Human MSLN-His antigen [1]): ~0.6 nM

B5: MSLN59 VHH-Fc fusion protein (Fc fusion)
chain: B4 chain with T14P, A23T, G26K, S27R, F29D
notes: Tested as bivalent VHH-Fc expressed in EXPI293; also called MSLN-VHH; MSLN nanobody 59; not shown: Fc of the VHH-Fc fusion
- EC50 (read off the curve) (Human MSLN-His antigen [1]): ~0.5 nM

B6: MSLN58 VHH-Fc fusion protein (Fc fusion)
chain: B4 chain with L11T, T14P, A23E, S25V, S27D, I28S, F29V
notes: Tested as bivalent VHH-Fc expressed in EXPI293; also called MSLN-VHH; MSLN nanobody 58; not shown: Fc of the VHH-Fc fusion
- EC50 (read off the curve) (Human MSLN-His antigen [1]): ~0.4 nM

B7: MSLN55 VHH-Fc fusion protein (Fc fusion)
chain: B4 chain with T14S, R19K, S27N, F29A
notes: Tested as bivalent VHH-Fc expressed in EXPI293; also called MSLN-VHH; MSLN nanobody 55; not shown: Fc of the VHH-Fc fusion
- EC50 (read off the curve) (Human MSLN-His antigen [1]): ~0.5 nM

B8: MSLN46 VHH-Fc fusion protein (Fc fusion)
chain: B9 chain with P14A, T19R
notes: Tested as bivalent VHH-Fc expressed in EXPI293; also called MSLN-VHH; MSLN nanobody 46; not shown: Fc of the VHH-Fc fusion
- EC50 (read off the curve) (Human MSLN-His antigen [1]): ~1 nM
- Kd (Human MSLN-His antigen [2]): 2.15 nM

B11: MSLN50 VHH-Fc fusion protein (Fc fusion)
chain: QVQLQESGGGLVQPGGSLRLSCAASGSISKIAIMGWYRQPPGNERELIAIANMTGTGVYRDTVKGRFTIRRDNAKNMVYLQMNNLKSEDTGVYYCHARQLGVGSFESWGQGTQVTVSS
notes: Tested as bivalent VHH-Fc expressed in EXPI293; also called MSLN-VHH; MSLN nanobody 50; not shown: Fc of the VHH-Fc fusion
- EC50 (read off the curve) (Human MSLN-His antigen [1]): ~10 nM

B12: positive control antibody P4 (antibody, V domains shown)
VH: QVQLQQSGPGLVTPSQTLSLTCAISGDSVSSNSATWNWIRQSPSRGLEWLGRTYYRSKWYNDYAVSVKSRMSINPDTSKNQFSLQLNSVTPEDTAVYYCARGMMTYYYGMDVWGQGTTVTVSS
VL: QPVLTQSSSLSASPGASASLTCTLRSGINVGPYRIYWYQQKPGSPPQYLLNYKSDSDKQQGSGVPSRFSGSKDASANAGVLLISGLRSEDEADYYCMIWHSSAAVFGGGTQLTVLS
notes: an AHC probe was used in the ForteBio assay; also called positive antibody P4
- EC50 (read off the curve) (Human MSLN-His antigen [3]): ~0.8 nM
